Source: patent US20230399397A1 (EWHA UNIVERSITY INDUSTRY COLLABORATION FOUNDATION, published 2023)
One block for each binder: values may come before it.

Assays:
[1] = biological target: T1, human OSCAR-Fc (fusion of ectodomain of human-derived OSCAR protein and Fc domain of human immunoglobulin … (human)); test: BLI (Octet); BLI (Octet); mother clone D11
T1 construct: also called hOSCAR-Fc; hOSCAR
Experimental: Therefore, based on intensities of the ELISA signals, expression levels, stability, and activity of the clones whose affinity was matured from the clone D11, D11-B9 was selected, and relative affinity thereof to OSCAR was re-evaluated by way of serial dilution. […] To measure a dissociation constant more accurately, analysis was performed by measuring bio-layer interferometry (BLI) signals using an Octet device. […] In the same manner as in the serial dilution ELISA, the clone D11 seems to have a lower affinity to hOSCAR. A dissociation constant was about 5.6 nM, and a lower response signal was measured (FIG. 10).

[2] = biological target: T1, human OSCAR-Fc (fusion of ectodomain of …); test: serial dilution ELISA, 4-parameter logistic curve fit
[3] = biological target: T1, human OSCAR-Fc (fusion of ectodomain of …); test: bio-layer interferometry (Octet), antibody as ligand on the sensor, hOSCAR as analyte
[4] = biological target: T2, mouse OSCAR-Fc (fusion of ectodomain of mouse-derived OSCAR protein and Fc domain of human immunoglobulin … (mouse)); test: bio-layer interferometry (Octet), antibody as ligand on the sensor, mOSCAR as analyte
T2 construct: also called mOSCAR-Fc; mOSCAR

[5] = biological target: T1, human OSCAR-Fc (fusion of ectodomain of …); test: BLI (Octet)
[6] = biological target: T2, mouse OSCAR-Fc (fusion of ectodomain of …); test: BLI (Octet)
[7] = biological target: T1, human OSCAR-Fc (fusion of ectodomain of …); test: BLI (Octet); BLI (Octet); hOSCAR
[8] = biological target: T2, mouse OSCAR-Fc (fusion of ectodomain of …); test: BLI (Octet); BLI (Octet); mOSCAR
[9] = biological target: T1, human OSCAR-Fc (fusion of ectodomain of …); test: serial dilution ELISA (re-evaluation); re-evaluation by serial dilution (FIG. 10); hOSCAR
[10] = biological target: T2, mouse OSCAR-Fc (fusion of ectodomain of …); test: serial dilution ELISA (re-evaluation); re-evaluation by serial dilution (FIG. 10); mOSCAR
[11] = biological target: T1, human OSCAR-Fc (fusion of ectodomain of …); test: serial dilution ELISA, 4-parameter logistic curve fit; first serial dilution ELISA of the IgG clones (FIG. 9)
Experimental: Next, the EC₅₀ values of the clones were calculated using a 4-parameter logistic curve fit from serial dilution ELISA.

[12] = biological target: T1, human OSCAR-Fc (fusion of ectodomain of …); test: ELISA, periplasm extract of the scFv clone on coated hOSCAR-Fc
Experimental: (§1) To select anti-OSCAR antibodies via ELISA screening, first, 200 μL of SB-carbenicillin was added to each well of a 96-well microplate, and E. coli colonies obtained in the third and fourth panning processes were added thereto, followed by incubation at 37° C. for 2 hours while stirring. Using a plate replication pin tool, the cultured clones were transferred to a new microplate, IPTG was added to each well in which E. coli was cultured to a final concentration of 1 mM, followed by incubation […] while stirring. Then, the microplate was centrifuged and the supernatant discarded, and then precipitated E. coli was suspended in 40 μL of ice-cold 1× TES (20% sucrose, 50 mM Tris, 1 mM EDTA, pH 8.0) per well. Then, […] was added to each well, mixed well, and left on ice for 30 minutes, followed by centrifugation of the microplate to obtain a periplasm extract.
(§2) Subsequently, 25 μL of human and mouse OSCAR-Fc and human IgG each diluted in PBS to a concentration of 2 μg/mL were added to each well of a 96-well plate for ELISA and left to stand at 37° C. for 1 hour such that an antigen was adsorbed onto the surface of the well. […] Once a blue color was clearly developed, reaction was terminated by adding 25 μL of 1 N aqueous sulfuric acid solution to each well, and a color change signal was measured using absorbance at a wavelength of 450 nm. […]

[13] = biological target: T2, mouse OSCAR-Fc (fusion of ectodomain of …); test: ELISA, periplasm extract of the scFv clone on coated mOSCAR-Fc
Experimental: as §1, §2

[14] = biological target: T1, human OSCAR-Fc (fusion of ectodomain of …); test: competitive ELISA, IgG premixed with OSCAR-Fc, on coated collagen
Experimental: (§3) Specifically, 25 μL of collagen (collagen type I from rat tail) diluted with PBS to a concentration of 2 μg/mL was added to an ELISA plate and adsorbed onto the ELISA plate by leaving to stand at 4° C. overnight. The surface onto which collagen was not adsorbed was protected by using a 3% milk powder solution. Subsequently, the purified anti-OSCAR IgG antibody and human or mouse OSCAR-Fc [fusion of ectodomain of human and mouse-derived OSCAR protein and Fc domain of human immunoglobulin gamma 1 (human IgG1)][human-derived: hOSCAR-Fc (SEQ ID NO: 4) and mouse-derived: mOSCAR-Fc (SEQ ID NO: 5)] were mixed to have concentrations of 2 μg/mL and 1 μg/mL, respectively, for 1.5 hours to bind to each other. Then, the mixture was added to the collagen-adsorbed ELISA plate from which the powdered milk solution was removed in an amount of […] and left to stand at room temperature for 1.5 hours. Subsequently, the plate was washed three times with PBST to remove unreacted antibodies and OSCAR-Fc, and 25 μL of an HRP-conjugated anti-human IgG antibody diluted at 1:3,000 was added to each well and left to stand at room temperature for 1 hour to detect OSCAR-Fc bound to collagen. […] Absorbance was measured at 450 nm to analyze the degree of OSCAR-collagen binding (FIG. 2).

[15] = biological target: T2, mouse OSCAR-Fc (fusion of ectodomain of …); test: as above
Experimental: as §3

Kd [1]: ~5.6 nM
EC50 [2]: 520 nM
Kd [3]: 5.61 nM
Kd [4]: 2.87 nM
B1: anti-OSCAR antibody D11 (IgG) (antibody, V domains shown)
VH: EVQLLESGGGLVQPGGSLRLSCAASGFTFSDYYWTWVRQAPGKGLEWVSGSPVFGAANYAQNFQGRFTISRDNSKNTLYLQMNSLRAEDTAVYYCAKAGFTGGHFDIWGQGTLVTVSS
VL: QSVLTQPPSASGTPGQRVTISCSGSSSNIGNNYVSWYQQLPGTAPKLLIYGNSNRPSGVPNRFSGSKSGTSASLAISGLRSEDEADYYCQSYDSSSWLFGGGTKLTVLG
notes: also called clone D11; mother-clone D11

fold affinity against clone D11 [5]: 10 times
fold affinity against clone D11 [6]: ≥ 10 times
Kd [7]: 0.4 nM
Kd [8]: 0.2 nM
EC50 [9]: 36.8 nM
EC50 [10]: 36.8 nM
Kd [3]: 0.41 nM
Kd [4]: 0.222 nM
EC50 [11]: 1.5 nM
B2: anti-OSCAR antibody D11-B9 (IgG) (antibody, V domains shown)
VH: EVQLLESGGGLVQPGGSLRLSCAASGFTFSDYYWTWVRQAPGKGLEWVSGSPVFGAANYAQNFQGRFTISRDNSKNTLYLQMNSLRAEDTAVYYCAKAGIPGHFDIWGQGTLVTVSS
VL: QSVLTQPPSASGTPGQRVTISCSGSSSNIGNNYVSWYQQLPGTAPKLLIYGNSNRPSGVPNRFSGSKSGTSASLAISGLRSEDEADYYCQSYDSSSWLFGGGTKLTVLG
notes: also called clone D11-B9; D11-69 (misprint in the text)

binding result [12]: binds
binding result [13]: binds
B3: anti-OSCAR scFv B4 (scFv, V domains shown)
VH: EVQLLESGGGLVQPGGSLRLSCAASGFTFSDYAMSWVRQAPGKGLEWVSGIYHGGGNIYYADSVKGRFTISRDNSKNTLYLQMNSLRAEDTAVYYCARAPDEFDYWGQGTLVTVSS
VL: QSVLTQPPSASGTPGQRVTISCSGSSSNIGNNSVTWYQQLPGTAPKLLIYYNSHRPSGVPDRFSGSKPGTSASLAISGLRSEDEADYYCGAWDSSLNGYVFGGGTKLTVL
notes: Single-chain Fv; Tested as periplasm extract

binding result [14]: binds
binding result [15]: binds
B4: anti-OSCAR antibody B4 (IgG) (antibody, V domains shown)
VH: EVQLLESGGGLVQPGGSLRLSCAASGFTFSDYAMSWVRQAPGKGLEWVSGIYHGGGNIYYADSVKGRFTISRDNSKNTLYLQMNSLRAEDTAVYYCARAPDEFDYWGQGTLVTVSS
VL: QSVLTQPPSASGTPGQRVTISCSGSSSNIGNNSVTWYQQLPGTAPKLLIYYNSHRPSGVPDRFSGSKPGTSASLAISGLRSEDEADYYCGAWDSSLNGYVFGGGTKLTVLG
notes: also called clone antibody B4
